How the values were obtained:
Assay type in all cases: biochemical
[1] = Oxidase activity testing, lyophilised recombinant P450/ferredoxin SeuF08/ferredoxin reductase SCF15A against ambroxide
[2] = Oxidase activity testing against carbamazepine
Procedure: Lyophilised material of recombinant P450, ferredoxin and ferredoxin reductase proteins was made as described in Example 4 and reconstituted in high purity water to the original volume. Biocatalysis was performed with shaking incubation at 27° C. in the following conditions: 100 mM potassium phosphate pH 8.0, 5 mM MgCl2 (both present in the reconstituted enzyme preparation) and 0.1 mg/ml substrate compound such as ambroxide (Sigma-Aldrich, UK), carbamazepine (Sigma-Aldrich, UK), diclofenac (Sigma-Aldrich, UK), tivantinib (MedChemtronica, Sweden), clarithromycin (Tokyo Chemical Industry, Japan), sclareol (Sigma-Aldrich, UK), celecoxib (LC Laboratories, USA), buparvaquone (Sigma-Aldrich, UK), BIRB796 (MedChemExpress, USA), vanoxerine (CiVentiChem, USA), valsartan (Tokyo Chemical Industry, Japan), ruxolitinib (LC Laboratories, USA), perindopril (Selleckchem, USA), solifenacin (Key Organics, UK), 7-ethoxycoumarin (Tokyo Chemical Industry, Japan), tofacitinib (LC Laboratories, USA), ebastine (Key Organics, UK), efavirenz (Key Organics, UK), propanalol (Sigma-Aldrich, UK) and tolbutamide (Key Organics, UK).
Concentrations of P450, ferredoxin and ferredoxin reductase were as extracted (Example 4). Reactions were initiated by addition of 10× stock of cofactor mixture (50 mM G6P, 10 mM NADP+, 10 UN/ml G6PDH) to provide a final volume of e.g., 10 μl to 90 μl for 100 μl total reaction volumes. After 16-20 hours, reactions were extracted with an equal volume of acetonitrile, centrifuged to remove precipitated proteins and conversion assessed by UPLC-MS analysis.
UPLC Data were Obtained as Follows: • Column: Acquity UPLC BEH Shield RP18 1.7 μm 2.1 mm i.d. 50 mm length • Solvents: H2O, B: Acetonitrile, both with 0.1% Formic acid • Flow rate: 1.0 ml/min • Detector: Waters Acquity UPLC PDA (UV-Vis detection) and Waters Acquity UPLC QDA (MS)
To confirm the identities of reaction products where known, their chromatographic retention time, mass and ultraviolet spectra were compared with those of authentic metabolite standards.
Representative results for the % conversions of carbamazepine to oxidised (+16 Da) products for single point mutants at position L198 are shown in Table 3 below.

[3] = Oxidase activity testing against sclareol; settings: substrate Sclareol, UPLC-MS UV or MS peak areas
Method in brief: (§1)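 Reconstituted lyophilised recombinant P450 with ferredoxin and ferredoxin reductase incubated with 0.1 mg/ml substrate in 100 mM potassium phosphate pH 8.0, 5 mM MgCl2 at 27° C with shaking, G6P/NADP+/G6PDH cofactor regeneration. After 16-20 hours, acetonitrile-extracted reactions analysed by UPLC-MS for % conversion.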

[4] = Oxidase activity testing against celecoxib; settings: substrate Celecoxib
Method in brief: as §1

[5] = Oxidase activity testing against buparvaquone; settings: substrate Buparvaquone
Method in brief: as §1

[6] = Oxidase activity testing against BIRB796; settings: substrate BIRB796
Method in brief: as §1

[7] = Oxidase activity testing against vanoxerine; settings: substrate Vanoxerine
Method in brief: as §1

[8] = Oxidase activity testing against valsartan; settings: substrate Valsartan
Method in brief: as §1

[9] = Oxidase activity testing against ruxolitinib; settings: substrate Ruxolitinib
Method in brief: as §1

[10] = Oxidase activity testing against perindopril; settings: substrate Perindopril
Method in brief: as §1

[11] = Oxidase activity testing against solifenacin; settings: substrate Solifenacin
Method in brief: as §1

[12] = Oxidase activity testing against 7-ethoxycoumarin; settings: substrate 7-ethoxycoumarin
Method in brief: as §1

[13] = Oxidase activity testing against tofacitinib; settings: substrate Tofacitinib
Method in brief: as §1

[14] = Oxidase activity testing against ebastine; settings: substrate Ebastine
Method in brief: as §1

[15] = Oxidase activity testing against efavirenz; settings: substrate Efavirenz
Method in brief: as §1

[16] = Oxidase activity testing against clarithromycin; settings: substrate Clarithromycin
Method in brief: as §1

[17] = Oxidase activity testing against propanalol; settings: substrate Propanalol
Method in brief: as §1

[18] = Oxidase activity testing against tolbutamide; settings: substrate Tolbutamide
Method in brief: as §1

[19] = oxidised ambroxide product, relative MS peak area

B1: SeuC10: native CYP450 from Streptomyces eurythermus NRRL 2539, SEQ ID NO: 2 (protein, listed as Streptomyces eurythermus)
chain: MKIGTTHLTRLRGLSMTELTDITGPAAQAETVAFPQDRTCPYHPPTGYDPLRDGRPLSRVTLYDGREVWLVTAQATARALLADPRLSTDRRRDGFPVPTPRFAAGRDRTLALLGLDDPEHHRQRRLLIPSFTLKRATAQRPWIQRIVDELLDAMIARGPVADLVSAFALPVPSMVICELLGVPYADHEFFEEQSRRLLRGPTGADTTDARDRLEAYLGDLIDAKAKEAEPGDGILDDLVHNRLRAGELDRSVLVSLAVILLVAGHETTANMISLGTYTLLQHPERLAELRADPSLLPAVVEELLRMLSIAEGLQRLALEDIEIDGITIRAGEGVLFSTSVINRDTAVYEDPDDLDFHRADRHHVAFGFGIHQCLGQNLARAELEIALGSLFTRLPGLRLAAPAEEIPFKPGDTVQGMLELPVTW
+16 Da (1.50 min) 253 m/z [1, 19]: 72.2%
+16 Da (1.60 min) 253 m/z [1, 19]: 5.0%
+16 Da (2.04 min) 253 m/z [1, 19]: 0.0%
reaction products from ambroxide (in words) ([1]; products at 1.50, 1.61 and 2.04 minutes): produce the product at 1.50 as the major product
Ambroxide (2.22 min) 237 m/z ([1]; remaining substrate, relative MS peak area, 0.1 mg/ml ambroxide, 27° C., 16-20 hours): 22.8%
Average % conversion ([1]; substrate ambroxide, relative MS peak areas): 77.2%
+16 Da (1.18 min) 253 m/z ([2]; 2-hydroxycarbamazepine, relative MS peak area): 0.0%
+16 Da (1.14 min) 253 m/z ([2]; carbamazepine epoxide, relative MS peak area): 43.6%
reaction products from carbamazepine (in words) ([2]; new product at 1.18 minutes identified as 2-hydroxycarbamazepine, epoxide at 1.14 minutes): carbamazepine epoxide as the only reaction product
Parent (1.31 min) 237 m/z ([2]; remaining carbamazepine, relative MS peak area, 0.1 mg/ml, 27° C., 16-20 hours): 56.4%
Average % conversion ([2]; substrate carbamazepine, relative MS peak areas): 43.6%
Average % conversion ([3]; Batch 1): 38.5%
Average % conversion ([3]; Batch 2): 35.5%
Average % conversion ([4]; Batch 1): 29.4%
Average % conversion ([4]; Batch 2): 22.2%
Average % conversion ([5]; Batch 1): 23.5%
Average % conversion ([5]; Batch 2): 32.9%
Average % conversion ([6]; Batch 1): 83.1%
Average % conversion ([6]; Batch 2): 78.8%
Average % conversion ([7]; Batch 1): 75.8%
Average % conversion ([7]; Batch 2): 65.8%
Average % conversion ([8]; Batch 1): 20.1%
Average % conversion ([8]; Batch 2): 20.8%
Average % conversion ([9]; Batch 1): 80.9%
Average % conversion ([9]; Batch 2): 98.6%
Average % conversion ([10]; Batch 1): 30.9%
Average % conversion ([10]; Batch 2): 32.7%
Average % conversion ([11]; Batch 1): 5.3%
Average % conversion ([11]; Batch 2): 7.2%
Average % conversion ([12]; Batch 1): 22.9%
Average % conversion ([12]; Batch 2): 23.3%
Average % conversion ([13]; Batch 1): 36.7%
Average % conversion ([13]; Batch 2): 51.6%
Average % conversion ([14]; Batch 1): 8.8%
Average % conversion ([14]; Batch 2): 4.5%
Average % conversion ([15]; Batch 1): 0%
Average % conversion ([15]; Batch 2): 0%
Average % conversion ([16]; Batch 1): 0%
Average % conversion ([16]; Batch 2): 0%
Average % conversion ([17]; Batch 1): 0%
Average % conversion ([17]; Batch 2): 0%
Average % conversion ([18]; Batch 1): 32.2%
Average % conversion ([18]; Batch 2): 37.7%
